# Patent US20030235860A1, “Interactions between AR, ER, TR2, and TR4” (priority 1999, published 2003)
# B1: GST-ER-N: GST fusion of aa 1-165 of ER (protein)
# chain: MTMTLHTKASGMALLHQIQGNELEPLNRPQLKIPLERPLGEVYLDSSKPAVYNYPEGAAYEFNAAAAANAQVYGQTGLPYGPGSEAAAFGSNGLGGFPPLNSVSPSPLMLLHPPPQLSPFLQPHGQQVPYYLENEPSGYTVREAGPPAFYRPNSDNRRQGGRERL
# modifications: left off: a dimerising Fc or GST; small tags and cut ends
# notes: GST fusion of aa 1-165 of ER
# B2: GST-ER-#I: GST fusion of ER aa 1-165 (protein)
# chain: B1 chain
# modifications: left off: a dimerising Fc or GST; small tags and cut ends
# B3: TR4 LBD (row label of Table 4) (receptor)
# chain: AASTEKIYIRKDLRSPLIATPTFVADKDGARQTGLLDPGMLVNIQQPLIREDGTVLLATDSKAETSQGALGTLANVVTSLANLSESLNNGDTSEIQPEDQSASEITRAFDTLAKALNTTDSSSSPSLADGIDTSGGGSIHVISRDQSTPIIEVEGPLLSDTHVTFKLTMPSPMPEYLNVHYICESASRLLFLSMHRARSIPAFQGLGQDCNTSLVRACWNELFTLGLAQCAQVMSLSTILAAIVNHLQNSIQEDKLSGDRIKQVMEHIWKLQEFCNSMANWDIDGYEYAYLKAIVLFSPDHPGLTSTSQIEKFQEKAQMELQDYVQKTYSEDTYRLARILVRLPALRLMSSNITEELFFTGLIGNVSIDSIIPYILKMETAEYNGQITGVSL
# notes: not shown: Fusion partner: GST in the pull-down with ER, GAL4-DBD in the hybrid assays with AR
# B4: TR2 N-T (row label of Table 4) (receptor)
# chain: MATIEEIAHQIIEQQMGEIVTEQQTGQKIQIVTALDHNTQGKQFILTNHDGSTPSKVILARQDSTPGKVFLTTPDAAGVNQLFFTTPDLSAQHLQLLTDNSPDQGPNKVFDL
# notes: also called TR2 N-terminal domain; not shown: GST fusion partner of pGEX-KG (GST-TR2-#1)
# B5: GST-ER-DBD: GST fusion of aa 123-340 of ER (protein)
# chain: PHGQQVPYYLENEPSGYTVREAGPPAFYRPNSDNRRQGGRERLASTNDKGSMAMESAKETRYCAVCNDYASGYHYGVWSCEGCKAFFKRSIQGHNDYMCPATNQCTIDKNRRKSCQACRLRKCYEVGMMKGGIRKDRRGGRMLKHKRQRDDGEGRGEVGSAGDMRAANLWPSPLMIKRSKKNSLALSLTADQMVSALLDAEPPILYSEYDPTRPFSEA
# modifications: left off: a dimerising Fc or GST; small tags and cut ends
# notes: GST fusion of aa 123-340 of ER
# B6: GST-ER-#2: GST fusion of ER aa 123-340 (protein)
# chain: B5 chain
# modifications: left off: a dimerising Fc or GST; small tags and cut ends
# B7: TR2 DBD (row label of Table 4) (receptor)
# chain: DLSAQHLQLLTDNSPDQGPNKVFDLCVVCGDKASGRHYGAVTCEGCKGFFKRSIRKNLVYSCRGSKDCIINKHHRNRCQYCRLQRCIAFGMKQDSVQCERKPIEVSREK
# notes: not shown: GST fusion partner of pGEX-KG (GST-TR2-#2)
# Assays:
# PSA = assay: Northern blot of endogenous PSA in LNCaP cells; format: cell-based, human; conditions: LNCaP cells
# Experimental: Total RNA from the DHT-treated transfected LNCaP cells was prepared by the ultracentrifugation method as described. Lee, et al., J: Biol. Chem. 273, 13437-13443 (1998). The probe was obtained from exon 3 of PSA gene and labeled with a-32p dCTP.
# To rule out the potential artificial effects linked to transfected reporter assays, the expression of endogenous prostate specific antigen (PSA, an androgen target that is widely used as a marker for prostate cancer progression) in LNCaP cells was measured by Northern blot analysis. Total RNA (25 μg) from LNCaP cells, which were transfected with either pCMX-TR4 or pCMX vector using SuperFect (Qiagen), was applied into a formamide RNA gel, then transferred onto a Nylon membrane, and then hybridized with a 32P-PSA gene fragment from the exon 3. P-actin was used as an internal control. […] The level of secreted PSA protein in the medium measured by ELISA, also confirmed this conclusion. This in vivo TR4-mediated suppressive effect strongly supports the above reporter assays.
# Total RNA from transfected LNCaP cells was prepared using TRIZOL reagents (Life Technology) as instructed by manufacturer. The probe was obtained from the PSA gene by PCR and labeled with 32P dCTP. Northern hybridization was performed as described previously [Mu X. M. et al. (2002) J Biol Chem 275:23877-23883].
# MCF7-TR2 cells = assay: MTT growth assay, MCF7-TR2 cells; format: cell-based; conditions: MCF7-TR2 cells; 10 nM E2, and/or 2 mg/ml doxycycline (TR2 induction)
# Experimental: (A) Growth assays were performed by MTT method as instructed by manufacturer (Sigma). 5×10^3 MCF7-pBIG and MCF7-TR2 cells were seeded in 24-well plates and incubated in RPMI with 10% CD-FCS for 48 h. […] After 3- and 5-day treatment, cells were harvested for MTT assay. Data represents the relative folds of MTT O.D.570 values at day 5 divided by that at day 3. […] Cells were then trypsinized and fixed overnight in 70% Ethanol. After cells were incubated with 1 mg/ml RNase A (Sigma) and propidium iodide (Roche Molecular Biochemicals), the DNA contents of cells were measured by a flow cytometry. (C) Percentage of growth suppression by TR2. MCF7-TR2 cells were seeded at 5×10^3 cells per well in 24-well plates. […] The treatments were changed every two days. The indices of cell growth were determined by MTT assay. The MTT values from cells without doxycycline were set as 100% in each kind of treatment. Values are represented by the percentage of growth suppression from cells with doxycycline to that without doxycycline.
# TR2 = biological target: T1, TR2 (Homo sapiens, UniProt P13056); assay: GST-ER fragment pull-down of [35S]-TR2; format: binding; design: host or cells: in vitro translation, TNT reticulocyte lysate; conditions: for Interaction with [35S]-TR2: GST-ER fragments, presence of 1 μM E2, Example 1; for Interaction with TR2: GST-fused ER peptides, presence or absence of E2, Example 2
# T1 sequence (P13056 1-603): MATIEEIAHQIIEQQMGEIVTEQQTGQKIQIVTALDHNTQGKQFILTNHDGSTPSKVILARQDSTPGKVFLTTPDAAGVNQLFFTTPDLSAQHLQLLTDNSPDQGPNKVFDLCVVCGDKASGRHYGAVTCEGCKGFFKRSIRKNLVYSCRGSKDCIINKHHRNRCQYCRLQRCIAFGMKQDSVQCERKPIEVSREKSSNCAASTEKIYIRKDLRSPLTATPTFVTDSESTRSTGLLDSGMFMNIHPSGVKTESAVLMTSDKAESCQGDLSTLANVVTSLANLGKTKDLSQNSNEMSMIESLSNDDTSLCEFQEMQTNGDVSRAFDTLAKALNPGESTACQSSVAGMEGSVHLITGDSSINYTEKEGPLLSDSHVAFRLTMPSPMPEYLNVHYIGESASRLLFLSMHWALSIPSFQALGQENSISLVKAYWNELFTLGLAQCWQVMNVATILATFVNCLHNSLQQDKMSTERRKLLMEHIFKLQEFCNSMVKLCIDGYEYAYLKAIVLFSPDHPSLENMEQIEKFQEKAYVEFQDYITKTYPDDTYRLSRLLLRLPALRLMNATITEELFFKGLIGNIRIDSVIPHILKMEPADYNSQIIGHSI
# Experimental: Fusion proteins of GST-TR2, GST-ER segments and GST were obtained by transforming expressing plasmids into BL21(DE3) pLysS competent bacteria followed with 2-hour IPTG induction. GST-proteins were then purified by mixing Glutathione-Sepharose™ 4B (Pharmacia) into bacteria lysates on a rotating disk at 4° C. for 40 mm followed by washing with 1 mL NENT buffer (20 mM Tris-HCL (pH 8.0), 100 mM NaCl, 1 mM EDTA, 6 mM MgCl2, 1 mM Dithiothretiol, 8% Glycerol, 1 mM PMSF and 0.5% (v/v) NP-40). The ER, AR, RXRA., and TR2 proteins labeled with [35S] were generated in vitro by using the TNT reticulocyte lysate system (Promega). For the in vitro interaction, the glutathione-Sepharose bound GST-proteins were resuspended with 100 μl of interaction buffer (20 mM HEPES pH 7.9, 150 mM KCl, 5 mM MgCl2. 0.5 mM EDTA, 0.5 mM Dithiothretiol, 0.1% (v/v) NP-40, 0.1% (w/v) BSA and 1 mM PMSF) and mixed with 5 μl of […] at 4° C. for 3 h. After extensive washes with NENT buffer, the bound proteins were separated on an SDS/8% PAGE and visualized by using autoradiography.
# The in vitro GST pull-down assay was applied to examine the interaction between the TR2 and ER. In vitro-translated, [35S]-labeled ER, AR, and RXRα proteins were incubated with GST or GST-TR2 bound on glutathione-Sepharose beads. After extensive washing, proteins were separated on an SDS/8% PAGE and visualized by using autoradiography.
# GST alone and GST fusion proteins were purified by Glutathione-Sepharose 4B beads as instructed by manufacturer (Amersham Pharmacia). The pull-down assay was performed with 5 μl of in vitro-translated [^35S]-labeled proteins as described previously (Yeh, S. et al. (2000) Proc. Natl. Acad. Sci. USA 97, 11256-61).
# [1] = biological target: T2, estrogen receptor (ER), full-length (human, UniProt P03372 1-595); assay: Table 4, summary of interactions tested; assay not given
# T2 construct: 35S-labeled when in vitro translated for the pull-downs; endogenous in MCF7 cells for the co-immunoprecipitation; also called ERα; pSG5-ER
# T2 sequence: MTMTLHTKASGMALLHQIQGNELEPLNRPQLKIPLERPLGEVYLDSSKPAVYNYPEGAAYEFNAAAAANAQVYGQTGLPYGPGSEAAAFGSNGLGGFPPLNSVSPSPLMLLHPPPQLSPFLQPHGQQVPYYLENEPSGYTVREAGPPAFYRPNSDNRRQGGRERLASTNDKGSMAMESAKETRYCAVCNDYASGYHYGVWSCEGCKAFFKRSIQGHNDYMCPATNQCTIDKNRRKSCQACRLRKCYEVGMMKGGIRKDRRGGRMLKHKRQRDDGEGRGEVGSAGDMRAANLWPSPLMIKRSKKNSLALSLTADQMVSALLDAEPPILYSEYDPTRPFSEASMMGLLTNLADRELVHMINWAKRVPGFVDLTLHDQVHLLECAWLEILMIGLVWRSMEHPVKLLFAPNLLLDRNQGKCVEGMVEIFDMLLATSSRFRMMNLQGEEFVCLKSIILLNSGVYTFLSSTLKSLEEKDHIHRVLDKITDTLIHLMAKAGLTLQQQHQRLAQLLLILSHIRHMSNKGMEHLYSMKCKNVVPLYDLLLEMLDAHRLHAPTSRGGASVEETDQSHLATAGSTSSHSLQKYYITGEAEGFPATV
molecule,measurement,setting,value
"C[C@]12CCC(=O)C[C@@H]1CC[C@@H]1[C@@H]2CC[C@]2(C)[C@@H](O)CC[C@@H]12 [DHT, hihydroxytestosterone, reference compound]",PSA mRNA expression,"PSA; 10 nM DHT, pCMV-TR2, Example 4",induces PSA mRNA expression
same,Induction of PSA transcript,PSA; 24 hours of DHT treatment,about 2.5 fold
"C[C@H]1c2cccc(O)c2C(=O)C2=C(O)[C@]3(O)C(=O)C(C(N)=O)=C(O)[C@@H](N(C)C)[C@@H]3[C@@H](O)[C@@H]21 [doxycycline, reference compound]","Cell growth, relative folds of MTT O.D.570 at day 5 divided by day 3",MCF7-TR2 cells,11.1 fold
B1,Interaction with [35S]-TR2,TR2,not
B2,Interaction with TR2,TR2,not
B3,binding result,[1],binds
B4,binding result,[1],no binding
B5,Interaction with [35S]-TR2,TR2,not
B6,Interaction with TR2,TR2,can interact
B7,binding result,[1],binds
